According to US7507799 (CORNELL RESEARCH FOUNDATION, dated 2009):

Tests used:
[1] = biological target: p75 on vascular smooth muscle cell line (p75Ts-Tag-SMC); experiment: cell-based or functional assay
TrkA on 293 cells = experiment: whole-cell competition against 1 nM 125I-NGF on 293 cells expressing only trk A
Procedure: (§1) FIG. 8: Binding analysis of mature and cleavage-resistant pro-NGF to TrkA or p75^NTR receptors. […] Competition analysis of equilibrium binding was performed using a whole-cell assay. Cells were incubated with 1 nM radioiodinated NGF in the presence or absence of unlabeled mature NGF or unlabeled proNGF from 0.005 to 7 nM concentration for 1 hour at […] Nonspecific binding measured in parallel incubation with 500-fold excess mature NGF was less than 10% of total binding; all results were corrected for this non-specific binding. Each point represents the mean±standard deviation of quadruplicate determinations. Squares, commercial mature NGF; open circles, cleavage resistant pro-NGF.
(§2) The cleavage resistant proform of NGF binds with higher affinity than the cleaved mature form of NGF to the p75 receptor. Competition binding assays were performed to determine the affinity of interaction of the uncleaved proform to p75 or to trk A. Commercially purchased, predominantly mature NGF (Enzo Products for Science, Farmingdale, N.Y.) was radiolabeled and incubated with cells expressing only p75, in the presence or absence of increasing concentrations of either unlabeled cleaved NGF, or of unlabeled cleavage resistant pro-NGF. […] Thus, the cleavage resistant pro-NGF proform binds less effectively to trk A.

p75NTR on A875 cells [2] = biological target: T1, p75NTR on A875 cells (UniProt P08138 29-427); experiment: ratio of IC50s, whole-cell competition against 125I-NGF on cells expressing only p75
T1 construct: whole, on cells; also called p75 receptor; cells expressing only p75
T1 sequence (looked up): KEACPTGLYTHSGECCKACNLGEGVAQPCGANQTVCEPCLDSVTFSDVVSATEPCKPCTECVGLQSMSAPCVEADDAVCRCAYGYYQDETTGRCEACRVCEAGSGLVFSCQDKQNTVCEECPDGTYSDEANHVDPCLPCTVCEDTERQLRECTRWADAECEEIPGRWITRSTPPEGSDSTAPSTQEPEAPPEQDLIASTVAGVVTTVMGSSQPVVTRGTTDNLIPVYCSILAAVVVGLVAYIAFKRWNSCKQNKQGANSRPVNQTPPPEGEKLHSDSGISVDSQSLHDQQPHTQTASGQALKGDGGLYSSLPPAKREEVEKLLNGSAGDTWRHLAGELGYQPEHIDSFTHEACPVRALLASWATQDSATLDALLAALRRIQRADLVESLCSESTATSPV
Procedure: as §1, §2

p75NTR on A875 cells [3] = biological target: T1, p75NTR on A875 cells; experiment: whole-cell competition against 1 nM 125I-NGF on cells expressing only p75 (A875 cells)
Procedure: as §1, §2

Chain of TrkA on 293 cells (chain, as listed by the source): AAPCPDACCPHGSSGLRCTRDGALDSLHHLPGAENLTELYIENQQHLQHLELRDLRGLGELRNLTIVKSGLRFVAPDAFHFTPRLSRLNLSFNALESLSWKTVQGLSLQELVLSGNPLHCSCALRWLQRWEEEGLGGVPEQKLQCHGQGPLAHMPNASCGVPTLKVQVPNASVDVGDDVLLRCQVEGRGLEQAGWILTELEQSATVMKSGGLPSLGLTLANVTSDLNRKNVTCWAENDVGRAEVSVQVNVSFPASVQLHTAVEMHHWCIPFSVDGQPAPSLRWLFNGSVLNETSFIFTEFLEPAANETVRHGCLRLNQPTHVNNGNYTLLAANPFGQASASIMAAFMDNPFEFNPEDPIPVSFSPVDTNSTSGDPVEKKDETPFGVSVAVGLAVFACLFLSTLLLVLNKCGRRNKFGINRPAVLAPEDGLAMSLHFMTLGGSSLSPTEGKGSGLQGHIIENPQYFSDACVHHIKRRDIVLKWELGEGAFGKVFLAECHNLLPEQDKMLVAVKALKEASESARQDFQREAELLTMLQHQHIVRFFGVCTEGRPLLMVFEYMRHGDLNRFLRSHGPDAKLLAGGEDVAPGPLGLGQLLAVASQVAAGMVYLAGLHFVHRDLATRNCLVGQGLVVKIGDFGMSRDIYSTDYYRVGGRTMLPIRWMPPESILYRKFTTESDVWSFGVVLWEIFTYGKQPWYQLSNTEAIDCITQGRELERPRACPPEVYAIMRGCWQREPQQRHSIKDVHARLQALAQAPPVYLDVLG

B1: His-tagged cleavage resistant pro-NGF (point mutant, K-R cleavage site at 120,121 mutated to A-A) (ligand)
chain: EPYTDSNVPEGDSVPEAHWTKLQHSLDTALRRARSAPTAPIAARVTGQTRNITVDPRLFKKRRLHSPRVLFSTQPPPTSSDTLDLDFQAHGTIPFNRTHRSAASSTHPVFHMGEFSVCDSVSVWVGDKTTATDIKGKEVTVLAEVNINNSVFRQYFFETKCRASNPVESGCRGIDSKHWNSYCTTTHTFVKALTTDEKQAAWRFIRIDTACVCVLSRKATRRG
notes: also called cleavage resistant proform of NGF; uncleaved proform; not shown: His tag at the carboxy-terminus
induction of apoptosis relative to mature NGF [1]: ~10 fold
IC50 (TrkA on 293 cells): > 5 nM
times as effective in binding p75 as cleaved NGF (p75NTR on A875 cells [2]): ~5 fold
IC50 (p75NTR on A875 cells [3]): 0.2 nM
